Our source for the IC50 values is patent US20140294898A1 (published 2014).

This assay deals with T1, hPDL1(19-239)-TVMV-His (human, UniProt Q9NZQ7 19-239).
T1 construct: The text says amino acids 18-239, the construct name says 19-239; Expressed in HEK293T cells; Used at 10 nM final in the HTRF assay; also called PD-L1-His; PD-L1-TVMV-His
Put plainly: HTRF competition, PD-1-Ig binding to PD-L1-His. The protocol:
All binding studies were performed in an HTRF assay buffer consisting of dPBS supplemented with 0.1% (w/v) bovine serum albumin and 0.05% (v/v) Tween-20. […] PD-L1 fusion proteins from either human, cynomologous macaques, or mouse were used. HTRF detection was achieved using europium crypate-labeled anti-Ig monoclonal antibody (1 nM final) and allophycocyanin (APC) labeled anti-His monoclonal antibody (20 nM final). Antibodies were diluted in HTRF detection buffer and 5 μl was dispensed on top of binding reaction. The reaction was allowed to equilibrate for 30 minutes and signal (665 nm/620 nm ratio) was obtained using an EnVision fluorometer. […]
HTRF Experiments were performed essentially as outlined supra. Variant macrocyclic peptides were created as outlined herein.

Positions of bridges follow the written chain, without caps; N, C: chain ends. Non-standard residues stand in square brackets, D forms with d. Bip = N[C@@H](Cc1ccc(-c2ccccc2)cc1)C(=O)O; 1Nal = N[C@@H](Cc1cccc2ccccc12)C(=O)O; 2Nal = N[C@@H](Cc1ccc2ccccc2c1)C(=O)O; NMeNle = CCCC[C@H](NC)C(=O)O; NMeV = CN[C@H](C(=O)O)C(C)C; NMeA = CN[C@@H](C)C(=O)O; Sar = CNCC(=O)O

T1 sequence (Q9NZQ7 other isoform, or with tags, fused parts or gaps limits assumed): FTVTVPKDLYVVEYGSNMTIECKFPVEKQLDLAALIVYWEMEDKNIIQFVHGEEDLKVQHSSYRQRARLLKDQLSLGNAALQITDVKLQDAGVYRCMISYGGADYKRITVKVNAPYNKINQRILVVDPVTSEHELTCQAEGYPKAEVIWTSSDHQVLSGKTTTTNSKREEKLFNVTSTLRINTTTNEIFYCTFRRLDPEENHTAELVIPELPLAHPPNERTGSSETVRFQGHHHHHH

B1: Compound No. 12 (peptide)
peptide: {CH2CO}-F[NMeA]NPHLGWSW[NMeNle][NMeNle]RCG-NH2
modifications: thioether N-14
SMILES: CCCC[C@H]1C(=O)N(C)[C@@H](CCCC)C(=O)N[C@@H](CCCNC(=N)N)C(=O)N[C@H](C(=O)NCC(N)=O)CSCC(=O)N[C@@H](Cc2ccccc2)C(=O)N(C)[C@@H](C)C(=O)N[C@@H](CC(N)=O)C(=O)N2CCC[C@H]2C(=O)N[C@@H](Cc2c[nH]cn2)C(=O)N[C@@H](CC(C)C)C(=O)NCC(=O)N[C@@H](Cc2c[nH]c3ccccc23)C(=O)N[C@@H](CO)C(=O)N[C@@H](Cc2c[nH]c3ccccc23)C(=O)N1C
B1 came in with an IC50 of 22 nM.

B2: Compound No. 21 (peptide)
peptide: FANPHLGWSWXARCG
HELM: PEPTIDE1{[O=C(C[*:3])[*:2]].F.[meA].N.P.H.L.[Sar].W.S.W.[CCCC[C@@H](C(=O)[*:2])N(C)[*:1]].[meA].R.C.G.[am]}$PEPTIDE1,PEPTIDE1,1:R3-15:R3$$$V2.0
SMILES: CCCC[C@H]1C(=O)N(C)[C@@H](C)C(=O)N[C@@H](CCCNC(=N)N)C(=O)N[C@H](C(=O)NCC(N)=O)CSCC(=O)N[C@@H](Cc2ccccc2)C(=O)N(C)[C@@H](C)C(=O)N[C@@H](CC(N)=O)C(=O)N2CCC[C@H]2C(=O)N[C@@H](Cc2c[nH]cn2)C(=O)N[C@@H](CC(C)C)C(=O)N(C)CC(=O)N[C@@H](Cc2c[nH]c3ccccc23)C(=O)N[C@@H](CO)C(=O)N[C@@H](Cc2c[nH]c3ccccc23)C(=O)N1C
B2 returned a half-maximal inhibitory concentration (IC50) of 21 nM.

B3: Compound No. 26 (peptide)
peptide: {CH2CO}-[2Nal][NMeA]NPHL[Sar]WSW[NMeNle][NMeNle]RCG-NH2
modifications: thioether N-14
SMILES: CCCC[C@H]1C(=O)N(C)[C@@H](CCCC)C(=O)N[C@@H](CCCNC(=N)N)C(=O)N[C@H](C(=O)NCC(N)=O)CSCC(=O)N[C@@H](Cc2ccc3ccccc3c2)C(=O)N(C)[C@@H](C)C(=O)N[C@@H](CC(N)=O)C(=O)N2CCC[C@H]2C(=O)N[C@@H](Cc2c[nH]cn2)C(=O)N[C@@H](CC(C)C)C(=O)N(C)CC(=O)N[C@@H](Cc2c[nH]c3ccccc23)C(=O)N[C@@H](CO)C(=O)N[C@@H](Cc2c[nH]c3ccccc23)C(=O)N1C
On to B3, for which the IC50 was found to be 15 nM.

B4: Compound No. 28 (peptide)
peptide: {CH2CO}-[Bip][NMeA]NPHL[Sar]WSW[NMeNle][NMeNle]RCG-NH2
modifications: thioether N-14
SMILES: CCCC[C@H]1C(=O)N(C)[C@@H](CCCC)C(=O)N[C@@H](CCCNC(=N)N)C(=O)N[C@H](C(=O)NCC(N)=O)CSCC(=O)N[C@@H](Cc2ccc(-c3ccccc3)cc2)C(=O)N(C)[C@@H](C)C(=O)N[C@@H](CC(N)=O)C(=O)N2CCC[C@H]2C(=O)N[C@@H](Cc2c[nH]cn2)C(=O)N[C@@H](CC(C)C)C(=O)N(C)CC(=O)N[C@@H](Cc2c[nH]c3ccccc23)C(=O)N[C@@H](CO)C(=O)N[C@@H](Cc2c[nH]c3ccccc23)C(=O)N1C
Turning to B4, the half-maximal inhibitory concentration (IC50) came to 117 nM.

B5: Compound No. 17 (peptide)
peptide: {CH2CO}-F[NMeA]NPHL[Sar]WSA[NMeNle][NMeNle]RCG-NH2
modifications: thioether N-14
SMILES: CCCC[C@H]1C(=O)N(C)[C@@H](CCCC)C(=O)N[C@@H](CCCNC(=N)N)C(=O)N[C@H](C(=O)NCC(N)=O)CSCC(=O)N[C@@H](Cc2ccccc2)C(=O)N(C)[C@@H](C)C(=O)N[C@@H](CC(N)=O)C(=O)N2CCC[C@H]2C(=O)N[C@@H](Cc2c[nH]cn2)C(=O)N[C@@H](CC(C)C)C(=O)N(C)CC(=O)N[C@@H](Cc2c[nH]c3ccccc23)C(=O)N[C@@H](CO)C(=O)N[C@@H](C)C(=O)N1C
B5: the IC50 came to 7540 nM.

B6: Compound No. 25 (peptide)
peptide: {CH2CO}-W[NMeA]NPHL[Sar]WSW[NMeNle][NMeNle]RCG-NH2
modifications: thioether N-14
SMILES: CCCC[C@H]1C(=O)N(C)[C@@H](CCCC)C(=O)N[C@@H](CCCNC(=N)N)C(=O)N[C@H](C(=O)NCC(N)=O)CSCC(=O)N[C@@H](Cc2c[nH]c3ccccc23)C(=O)N(C)[C@@H](C)C(=O)N[C@@H](CC(N)=O)C(=O)N2CCC[C@H]2C(=O)N[C@@H](Cc2c[nH]cn2)C(=O)N[C@@H](CC(C)C)C(=O)N(C)CC(=O)N[C@@H](Cc2c[nH]c3ccccc23)C(=O)N[C@@H](CO)C(=O)N[C@@H](Cc2c[nH]c3ccccc23)C(=O)N1C
Consider B6, for which the 50% inhibitory concentration (IC50) is 27 nM.

B7: Compound No. 43 (peptide)
peptide: {CH2CO}-F[NMeA]GPHL[Sar]WSW[NMeNle][NMeNle]RCG-NH2
modifications: thioether N-14
SMILES: CCCC[C@H]1C(=O)N(C)[C@@H](CCCC)C(=O)N[C@@H](CCCNC(=N)N)C(=O)N[C@H](C(=O)NCC(N)=O)CSCC(=O)N[C@@H](Cc2ccccc2)C(=O)N(C)[C@@H](C)C(=O)NCC(=O)N2CCC[C@H]2C(=O)N[C@@H](Cc2c[nH]cn2)C(=O)N[C@@H](CC(C)C)C(=O)N(C)CC(=O)N[C@@H](Cc2c[nH]c3ccccc23)C(=O)N[C@@H](CO)C(=O)N[C@@H](Cc2c[nH]c3ccccc23)C(=O)N1C
B7 yielded an IC50 of 554 nM.

B8: Compound No. 41 (peptide)
peptide: {CH2CO}-F[NMeV]NPHL[Sar]WSW[NMeNle][NMeNle]RCG-NH2
modifications: thioether N-14
SMILES: CCCC[C@H]1C(=O)N(C)[C@@H](CCCC)C(=O)N[C@@H](CCCNC(=N)N)C(=O)N[C@H](C(=O)NCC(N)=O)CSCC(=O)N[C@@H](Cc2ccccc2)C(=O)N(C)[C@@H](C(C)C)C(=O)N[C@@H](CC(N)=O)C(=O)N2CCC[C@H]2C(=O)N[C@@H](Cc2c[nH]cn2)C(=O)N[C@@H](CC(C)C)C(=O)N(C)CC(=O)N[C@@H](Cc2c[nH]c3ccccc23)C(=O)N[C@@H](CO)C(=O)N[C@@H](Cc2c[nH]c3ccccc23)C(=O)N1C
For B8, the half-inhibitory concentration (IC50) amounted to 921 nM.

B9: Compound No. 30 (peptide)
peptide: {CH2CO}-Y[NMeA]NPHL[Sar]WSW[NMeNle][NMeNle]RCG-NH2
modifications: thioether N-14
SMILES: CCCC[C@H]1C(=O)N(C)[C@@H](CCCC)C(=O)N[C@@H](CCCNC(=N)N)C(=O)N[C@H](C(=O)NCC(N)=O)CSCC(=O)N[C@@H](Cc2ccc(O)cc2)C(=O)N(C)[C@@H](C)C(=O)N[C@@H](CC(N)=O)C(=O)N2CCC[C@H]2C(=O)N[C@@H](Cc2c[nH]cn2)C(=O)N[C@@H](CC(C)C)C(=O)N(C)CC(=O)N[C@@H](Cc2c[nH]c3ccccc23)C(=O)N[C@@H](CO)C(=O)N[C@@H](Cc2c[nH]c3ccccc23)C(=O)N1C
As for B9, the half-maximal inhibitory concentration (IC50) was found to be 5 nM.

B10: Compound No. 22 (peptide)
peptide: {CH2CO}-F[NMeA]NPHL[Sar]WSW[NMeNle][NMeNle]ACG-NH2
modifications: thioether N-14
SMILES: CCCC[C@H]1C(=O)N(C)[C@@H](CCCC)C(=O)N[C@@H](C)C(=O)N[C@H](C(=O)NCC(N)=O)CSCC(=O)N[C@@H](Cc2ccccc2)C(=O)N(C)[C@@H](C)C(=O)N[C@@H](CC(N)=O)C(=O)N2CCC[C@H]2C(=O)N[C@@H](Cc2c[nH]cn2)C(=O)N[C@@H](CC(C)C)C(=O)N(C)CC(=O)N[C@@H](Cc2c[nH]c3ccccc23)C(=O)N[C@@H](CO)C(=O)N[C@@H](Cc2c[nH]c3ccccc23)C(=O)N1C
Consider B10, for which the IC50 stood at 3 nM.

B11: Compound No. 27 (peptide)
peptide: {CH2CO}-[1Nal][NMeA]NPHL[Sar]WSW[NMeNle][NMeNle]RCG-NH2
modifications: thioether N-14
SMILES: CCCC[C@H]1C(=O)N(C)[C@@H](CCCC)C(=O)N[C@@H](CCCNC(=N)N)C(=O)N[C@H](C(=O)NCC(N)=O)CSCC(=O)N[C@@H](Cc2cccc3ccccc23)C(=O)N(C)[C@@H](C)C(=O)N[C@@H](CC(N)=O)C(=O)N2CCC[C@H]2C(=O)N[C@@H](Cc2c[nH]cn2)C(=O)N[C@@H](CC(C)C)C(=O)N(C)CC(=O)N[C@@H](Cc2c[nH]c3ccccc23)C(=O)N[C@@H](CO)C(=O)N[C@@H](Cc2c[nH]c3ccccc23)C(=O)N1C
As for B11, the concentration for half-maximal inhibition (IC50) worked out at 20 nM.

B12: Compound No. 24 (peptide)
peptide: {CH2CO}-F[NMeA]NPHL[Sar]WSW[NMeNle][NMeNle]RC-NH2
modifications: thioether N-14
SMILES: CCCC[C@H]1C(=O)N(C)[C@@H](CCCC)C(=O)N[C@@H](CCCNC(=N)N)C(=O)N[C@H](C(N)=O)CSCC(=O)N[C@@H](Cc2ccccc2)C(=O)N(C)[C@@H](C)C(=O)N[C@@H](CC(N)=O)C(=O)N2CCC[C@H]2C(=O)N[C@@H](Cc2c[nH]cn2)C(=O)N[C@@H](CC(C)C)C(=O)N(C)CC(=O)N[C@@H](Cc2c[nH]c3ccccc23)C(=O)N[C@@H](CO)C(=O)N[C@@H](Cc2c[nH]c3ccccc23)C(=O)N1C
B12 registered an IC50 of 9 nM.

B13: Compound No. 19 (peptide)
peptide: FANPHLGWSWAXRCG
HELM: PEPTIDE1{[O=C(C[*:3])[*:2]].F.[meA].N.P.H.L.[Sar].W.S.W.[meA].[CCCC[C@@H](C(=O)[*:2])N(C)[*:1]].R.C.G.[am]}$PEPTIDE1,PEPTIDE1,1:R3-15:R3$$$V2.0
SMILES: CCCC[C@H]1C(=O)N[C@@H](CCCNC(=N)N)C(=O)N[C@H](C(=O)NCC(N)=O)CSCC(=O)N[C@@H](Cc2ccccc2)C(=O)N(C)[C@@H](C)C(=O)N[C@@H](CC(N)=O)C(=O)N2CCC[C@H]2C(=O)N[C@@H](Cc2c[nH]cn2)C(=O)N[C@@H](CC(C)C)C(=O)N(C)CC(=O)N[C@@H](Cc2c[nH]c3ccccc23)C(=O)N[C@@H](CO)C(=O)N[C@@H](Cc2c[nH]c3ccccc23)C(=O)N(C)[C@@H](C)C(=O)N1C
B13 showed a half-inhibitory concentration (IC50) of 33 nM.
